Measured values: paper PMC11929449, “Epitope-directed selection of GPCR nanobody ligands with evolvable function” (Proceedings of the National Academy of Sciences of the …, 2025)
Residue numbers refer to the chain shown, from its start. In names and notes the source's numbering stands. Read-outs that look alike come from different tables or passages of the source. Blank lines part the entries; values can stand above or below the binder they belong to.

Assays:
[1] = molecular target: T1, FLAG-tagged wild-type human angiotensin II type I receptor (FLAG-AT1R) (Homo sapiens, UniProt P30556)
T1 sequence (P30556 whole entry): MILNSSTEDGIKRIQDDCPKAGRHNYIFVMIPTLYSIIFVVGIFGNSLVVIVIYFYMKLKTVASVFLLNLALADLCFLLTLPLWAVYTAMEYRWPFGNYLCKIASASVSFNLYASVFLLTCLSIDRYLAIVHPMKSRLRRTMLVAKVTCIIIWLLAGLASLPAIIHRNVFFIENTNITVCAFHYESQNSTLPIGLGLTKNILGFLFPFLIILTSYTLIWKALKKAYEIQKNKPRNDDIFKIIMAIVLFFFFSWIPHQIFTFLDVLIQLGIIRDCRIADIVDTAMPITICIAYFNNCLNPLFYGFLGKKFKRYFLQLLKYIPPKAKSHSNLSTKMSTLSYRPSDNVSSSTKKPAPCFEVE

[2] = molecular target: T1, FLAG-tagged wild-type human angiotensin …; test: flow cytometry on cells; purified nanobody (single point 250 or 500 nM, or titrated) on Expi293F TetR cells expressing FLAG-AT1R preincubated with 10 μM losartan at 4 °C for 30 min; detected with αV5-AlexaFluor647; 20 mM Hepes pH 7.4, 150 mM NaCl, 0.1% BSA; details: one partner purified
[3] = molecular target: T2, FLAG-tagged human angiotensin II type I receptor (FLAG-AT1R) (human); test: flow cytometry on cells; soluble nanobody titrated on Expi293F TetR cells expressing FLAG-AT1R, receptor pre-bound to losartan (10 μM, 5 μM in washes); 20 mM Hepes pH 7.4, 150 mM NaCl, 0.1% BSA, 4 °C; detected with αV5-AlexaFluor647; details: one partner purified
T2 construct: also called WT receptor; pMAS85; source: Expi293F TetR, transfected, purified in LMNG/CHS (M1-αFLAG resin, SEC); also Expi293F TetR cells stably expressing FLAG-AT1R under a tetracycline-inducible promoter, on intact cells; not shown: FLAG, N-terminal, kept
T2 chain: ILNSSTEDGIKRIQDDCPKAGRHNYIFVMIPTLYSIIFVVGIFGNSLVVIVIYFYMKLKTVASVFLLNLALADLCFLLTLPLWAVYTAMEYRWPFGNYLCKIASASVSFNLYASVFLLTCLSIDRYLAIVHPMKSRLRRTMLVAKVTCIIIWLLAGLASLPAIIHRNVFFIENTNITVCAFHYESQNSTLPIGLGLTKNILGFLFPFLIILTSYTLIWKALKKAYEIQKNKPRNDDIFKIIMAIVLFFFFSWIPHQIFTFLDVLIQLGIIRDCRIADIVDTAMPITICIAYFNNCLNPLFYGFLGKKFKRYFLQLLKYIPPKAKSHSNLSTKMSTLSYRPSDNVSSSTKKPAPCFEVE

[4] = molecular target: T1, FLAG-tagged wild-type human angiotensin …; test: flow cytometry on cells; nanobody displayed on yeast; 100 nM unliganded detergent-purified FLAG-AT1R in solution, detected with fluorophore-conjugated M1-αFLAG; 4 °C, 30 min; 20 mM Hepes pH 7.5, 150 mM NaCl, 2.8 mM CaCl2, 0.05% LMNG, 0.005% CHS; details: one partner purified
[5] = molecular target: T2, FLAG-tagged human angiotensin II type I …; test: flow cytometry on cells; soluble nanobody titrated on Expi293F TetR cells expressing FLAG-AT1R, unliganded receptor; 20 mM Hepes pH 7.4, 150 mM NaCl, 0.1% BSA, 4 °C; detected with αV5-AlexaFluor647; details: one partner purified
[6] = molecular target: FLAG-tagged wild-type human angiotensin II type I receptor (FLAG-AT1R) (human) (UniProt P30556); test: flow cytometry on cells; purified nanobody (single point 250 nM, or titrated) on Expi293F TetR cells expressing FLAG-AT1R preincubated with 10 μM olmesartan at 4 °C for 30 min; detected with αV5-AlexaFluor647; 20 mM Hepes pH 7.4, 150 mM NaCl, 0.1% BSA
[7] = molecular target: T1, FLAG-tagged wild-type human angiotensin …; test: flow cytometry on cells; purified nanobody (single point 250 or 500 nM, or titrated) on Expi293F TetR cells expressing FLAG-AT1R, unliganded; 1 h; detected with αV5-AlexaFluor647; 20 mM Hepes pH 7.4, 150 mM NaCl, 0.1% BSA; details: one partner purified

- binding result [1]: binds
B1: AT213 (VHH)
VHH: QVQLQESGGGLVQAGGSLRLSCAASGYIFYGATMGWYRQAPGKEREFVAGINYGGSTNYADSVKGRFTISRDNAKNTVYLQMNSLKPEDTAVYYCAVWDTYAQRRSSYFVYWGQGTQVTVSS

B2: AT211 (VHH)
VHH: QVQLQESGGGLVQAGGSLRLSCAASGTISHSAGMGWYRQAPGKERELVAAISGGTITNYADSVKGRFTISRDNAKNTVYLQMNSLKPEDTAVYYCAALGYWRRAGGTYYVVHYYWGQGTQVTVSS
notes: synthetic nanobody AT211; source: E. coli BL21(DE3), periplasm, purified (Ni-NTA); not shown: V5, C-terminal, kept
- binding result [2]: binds

B3: AT205 (VHH)
VHH: QVQLQESGGGLVQAGGSLRLSCAASGYIFYDSVMGWYRQAPGKEREFVAAIAAGSSTNYADSVKGRFTISRDNAKNTVYLQMNSLKPEDTAVYYCGEYYNWLHQYWGQGTQVTVSS
notes: synthetic nanobody AT205; source: E. coli BL21(DE3), periplasm, purified (Ni-NTA); not shown: V5, C-terminal, kept
- binding result [2]: binds

- binding result [1]: binds
B4: AT212 (VHH)
VHH: QVQLQESGGGLVQAGGSLRLSCAASGSISNYKYMGWYRQAPGKERELVATIGGGATTNYADSVKGRFTISRDNAKNTVYLQMNSLKPEDTAVYYCAAVRAGYSLYYPYFYYWGQGTQVTVSS

- binding result [1]: binds
B5: AT203 (VHH)
VHH: QVQLQESGGLVQAGGSLRLSCAASGYISRSYDMGWYRQAPGKERELVASINEGSTTNYADSVKGRFTISRDNAKNTVYLQMNSLKPEDTAVYYCAAYTYGHGDYHVYWGQGTQVTVSS

B6: AT208 (VHH)
VHH: QVQLQESGGGLVQAGGSLRLSCAASGYIFTRYRMGWYRQAPGKEREFVAAIGDGGTTNYADSVKGRFTISRDNAKNTVYLQMNSLKPEDTAVYYCAAYYVSRPNYGTIYVYWGQGTQVTVSS
notes: synthetic nanobody AT208; source: E. coli BL21(DE3), periplasm, purified (Ni-NTA); not shown: V5, C-terminal, kept
- binding result [2]: binds

B7: nanobody AT206 (VHH)
VHH: QVQLQESGGGLVQAGGSLRLSCAASGSISYYRMGWYRQAPGKEREFVAGIGVGTTTNYADSVKGRFTISRDNAKNTVYLQMNSLKPEDTAVYYCAAYNYFPRSIVYYYVYWGQGTQVTVSS
notes: source: E. coli BL21(DE3), periplasm, purified (Ni-NTA); not shown: V5, C-terminal, kept
- Kd [3]: 363 nM

B8: AT206, yeast-displayed (VHH)
VHH: B7 VHH
notes: synthetic nanobody AT206; also in the deposited structures; the anchor is not described here
- binding result [4]: binds

B9: AT206 (VHH)
VHH: B7 VHH
notes: synthetic nanobody AT206; also in the deposited structures; also called parent clone of AT118-AT206; source: E. coli BL21(DE3), periplasm, purified (Ni-NTA); not shown: V5, C-terminal, kept
- binding result [2]: binds

- binding result [1]: binds
B10: AT210 (VHH)
VHH: QVQLQESGGGLVQAGGSLRLSCAASGTISSWSFMGWYRQAPGKEREFVATIAPGSSTNYADSVKGRFTISRDNAKNTVYLQMNSLKPEDTAVYYCAVYYGVPRFHVYWGQGTQVTVSS

B11: AT207 (VHH)
VHH: QVQLQESGGGLVQAGGSLRLSCAASGYIFTHSSMGWYRQAPGKEREFVAAITVGANTNYADSVKGRFTISRDNAKNTVYLQMNSLKPEDTAVYYCAAYNPFYPVYIYWGQGTQVTVSS
notes: synthetic nanobody AT207; source: E. coli BL21(DE3), periplasm, purified (Ni-NTA); not shown: V5, C-terminal, kept
- binding result [2]: binds

B12: AT118-H CDR1-AT206 CDR2 CDR3 chimeric nanobody (AT118-AT206) (VHH)
VHH: QVQLQESGGGLVQAGGSLRLSCAASDYIYRRYRMGWYRQAPGKEREFVAGIGVGTTTNYADSVKGRFTISRDNAKNTVYLQMNSLKPEDTAVYYCAAYNYFPRSIVYYYVYWGQGTQVTVSS
notes: AT206 with its CDR1 replaced by CDR1 of AT118-H and the G26D stabilising substitution; also called AT118-H G26D CDR1, AT206 CDR 2&3; source: E. coli BL21(DE3), periplasm, purified (Ni-NTA); not shown: V5, C-terminal, kept
- Kd [5]: 206 nM
- Kd [3]: 153 nM

B13: AT118-H CDR1-AT206 CDR2 CDR3 chimeric nanobody (AT118-AT206) (VHH)
VHH: B12 VHH
notes: as the chain of AT206 with CDR1 replaced by CDR1 of AT118-H and the stabilising substitution G26D; also called AT118-AT206 chimera; source: E. coli BL21(DE3), periplasm, purified (Ni-NTA); not shown: V5, C-terminal, kept
- fold increase in affinity over AT206 [2]: 2 fold

B14: AT209 (VHH)
VHH: QVQLQESGGGLVQAGGSLRLSCAASGYIFYRYSMGWYRQAPGKEREFVAGISYGATTNYADSVKGRFTISRDNAKNTVYLQMNSLKPEDTAVYYCAAWGGRTLYFVYWGQGTQVTVSS
- Kd [6]: 100 nM

B15: AT209 L103D (VHH)
VHH: B14 VHH with L103D
notes: as the chain of AT209 with L103D in CDR3; also called AT209 L103D^CDR3; AT209 L103D variant; source: E. coli BL21(DE3), periplasm, purified (Ni-NTA); not shown: V5, C-terminal, kept
- binding result [7]: binds

B16: nanobody AT209 L103D (VHH)
VHH: B14 VHH with L103D
notes: the substitution L103D is still to be applied; also called AT209 L103D^CDR3; source: E. coli BL21(DE3), periplasm, purified (Ni-NTA); not shown: V5, C-terminal, kept
- Kd [5]: 144 nM

- binding result [1]: binds
B17: AT201 (VHH)
VHH: QVQLQESGGGLVQAGGSLRLSCAASGTISDPPYMGWYRQAPGKERELVAAIDVGANTYYADSVKGRFTISRDNAKNTVYLQMNSLKPEDTAVYYCAVEYDAQVPHQYWGQGTQVTVSS
